# Test: Fast Protein Liquid Chromatography / size-exclusion chromatography, oligomeric state
# Format: physicochemical
# Settings: concentration of at least 10 μM
# From the text: Based on the standards, the dimeric protein would be expected to elute at the volume indicated by a dotted line, which eliminates the possibility of design oligomerization.
substance,measurement,value
"native mCherry: Red Fluorescent Protein mCherry (PDB code 2H5Q), design template (SEQ ID NO. 1) [reference compound]",oligomeric state in solution,monomeric

# — patent publication US20210210159A1, “COMPUTATIONAL PROTEIN DESIGN USING TERTIARY OR QUATERNARY STRUCTURAL MOTIFS” (Trustees of Dartmouth College, priority 2018, published 2021)
